Reference: the DeepSol protein solubility set

experiment: soluble on expression in E. coli; label from the status in PepcDB or PDB records

Sequence | soluble on expression in E. coli
SLDICSKNPCHNGGLCEEISQEVRGDVFPSYTCTCLKGYAGNHCETKCVEPLGMENGNIANSQIAASSVRVTFLGLQHWVPELARLNRAGMVNAWTPSSNDDNPWIQVNLLRRMWVTGVVTQGASRLASHEYLKAFKVAYSLNGHEFDFIHDVNKKHKEFVGNWNKNAVHVNLFETPVEAQYVRLYPTSCHTACTLRFELLGCELNGCANPLGLKNNSIPDKQITASSSYKTWGLHLFSWNPSYARLDKQGNFNAWVAGSYGNDQWLQVDLGSSKEVTGIITQGARNFGSVQFVASYKVAYSNDSANWTEYQDPRTGSSKIFPGNWDNHSHKKNLFETPILARYVRILPVAWHNRIALRLELLGC | soluble
SLEGGDTLEGSMAQLKKGLESGTVLIQFEQLYRKKPGLAITFAKLPQNLDKNRYKDVLPYDTTRVLLQGNEDYINASYVNMEIPAANLVNKYIATQGPLPHTCAQFWQVVWDQKLSLIVMLTTLTERGRTKCHQYWPDPPDVMNHGGFHIQCQSEDCTIAYVSREMLVTNTQTGEEHTVTHLQYVAWPDHGVPDDSSDFLEFVNYVRSLRVDSEPLLVHCSAGIGRTGVLVTMETAMCLTERNLPIYPLDIVRKMRDQRAMMVQTSSQYKFVCEAILRVYEEGLVQMLDPS | soluble
SLENVLASHSKMQGALEKVQIELGRRDSEIAGLKKERDLNQQRVQKLEAEVDQWQARMLVMEDQHNSEIESLQKALGVAREDNRKLAMSLEQALQTNNHLQTKLDHIQEQLESKELERQNLETFKDRMTEESKVEAELHAERIEALRKQFQTERETTKKVAQREVAELKKALDEANFRSVEVSRTNRELRQKLAELEKILESNKEKIKNQKTQIKLHLSAKANNAQNIERMKVVWETSSHFLDTL | soluble
SLETKVAARDLSSLLSHCEAPVAALTVTAFKCKASACSVAPAPGSNTGLGALMSMAQAAQGLQTFPNIGDGLSNALTTALKTTGCFKVMAREDFEDLRREAEAAGITLKSASADYLVTGAITSLAVGAKTQSFGGGFVPLVGAVSRSTKSANISIDVRLVDVKASEVKASQTFDVSNERSSWGAGGAGWGGSGALFGAASSTQSPELDSVANESVIQAANYIVTQVAGSAAIPPVAAITK | soluble
SLGNGMNKILPGLYIGNFKDARDAEQLSKNKVTHILSVHDSARPMLEGVKYLCIPAADSPSQNLTRHFKESIKFIHECRLRGESCLVHCLAGVSRSVTLVIAYIMTVTDFGWEDALHTVRAGRSCANPNVGFQRQLQEFEKHEVHQ | not soluble
SLGQADTERLLSDRKLVLLVDLDQTLIHTTNDNVPNNLKDVYHFQLYGPNSPWYHTRLRPGALEFLAKMHPYYELHICTFGARNYAHMIAQFLDKDGNFFSHRILSRDECFNATSKTDNLKALFPCGDSMVCIIDDREDVWNMASNLIQVKPYHFFRHTGDINAPPGMSKNELDGKGVDFKELMSQSQK | soluble
SLHVTELTAFLVPLPLKREIKHASFTRTESINLLIRCKLSNGTIGWGEGVPRPYVTGETPEGCLQQLSQSNLHPALMQSASNWPEVIAICDALQFNNDSDDSRGCGSNSLRCAVELSLLDAFGRHFGQPVSAVVPHVAEAAEIHVRQPRVRYSTTITSSGAKSERISALKMRAYGFAQCKIKVGVDGQDDPSRVARIRRWIGGGVDLRLDANEAWRPEEVAEKMRPLREFGVTCIEQPVAHDQVDALASLRESIGVPIMLDESLTSRMDAERAIELGTCDLFNLRLSKCGGFLSCLRLAALARASGLGYQLGCHPGESGVLSAAGRHWASSVRDIRYLEGSYDRHLLTTLPTQEDITFRYGGWAPALDSPGLGVTIREDWLRQNAKAERTFVVEAQ | soluble
SLIDKIKSNARDLRRNLTLQERKLWRYLRSRRFSDFKFRRQHPVGSYILDFACCSARVVVELDGGQHDLAVAYDSRRTSWLESQGWTVLRFWNNEIDCNEETVLENILQELNRRSPSP | soluble
SLIKKVKIKKFNGRDFYDMEDYVAVEESYNIFINGEFVKSLSMSPNFLNEFAVGFAISEGFLNKIDKVEVDKNNINIFGEKNDREIKNNKNNKEIKIDIEIIKKIISYEIKAKYWEITGSFHWASMFDLKGNSIIFVEDIGRHNAVDKVIGYAILNNYNLNKLILRYSGRIPSDIVKKAINSGLNIIISKSPPTDKAIELAEENNILLIGFARNGKFNIYTSGRLWEE | soluble
SLIMRYADSGLCGTVSQNMADARTRAESTDLSETSPDE | soluble
SLKIKHEHIESVLLALAAEKGQAWVANAITEEYLRQGGGELPLVPGKDWNNQQNIYHRWLKGETNAQREKIQKLIPAVLAILPRELRHRLCIFDTLERRALLAAQDALSTAIDAHDDAVQAVYRKAHFSGGGSPSDSVVVH | soluble
SLKIKNILLSGGSGKRLWPLSRSLYPKQFLKLFDHKSLFELSFKRNASLVDETLIVCNEKHYFLALEEIKNEIKNKSVGFLLESLSKNTANAIALSALMSDKEDLLIVTPSDHLIKDLQAYENAIKKAIDLAQKGFLVTFGVSIDKPNTEFGYIESPNGLDVKRFIEKPSLDKAIEFQKSGGFYFNSGMFVFQAGVFLDELKKHAPTILKGCERAFESLENAYFFEKKIARLSEKSMQDLEDMSIDIALMQQSHKIKMVELNAKWSDLGNFNALFEEAANEPKENVSLNQTPVFAKESENNLVFSHKVSALLGVENLAVIDTKDALLIAHKDKAKDLKALVNEVETNN | soluble
SLKSLNHISLLCRSVEESISFYQNVLGFLPIRRPDSFDFDGAWLFGHGIGIHLLQSPEPEKLLKKTEINPKDNHISFQCESMEAVEKKLKEMEIEYVRAVVEEGGIQVDQLFFHDPDAFMIEICNCDSLPVIPLAGEMARSCSRLNIRQLVQPTQIHEG | soluble
SLKVKAINLYTYKEPFKSPISTPKVKLTHRESLFTEIVTYSGETYYGECNAFLTNWYDKETILTVVNRLRQWIPQVLHKDMTSFDSWLPYLNQMNDAPAARSMVVMAVYQMYNDLHDFEVQYGATVSGLTNSQIETLLETRPKRIKLKWSTSLIKDLETIRLLNFDCDIAIDANESLTKPSFLQLANVNTSDIIYIEEPFKILEDLNDIDMSIFPRIAIDEKALSIEKIQSIIQQYPIQVVVLKPFRLGGIDRMLNAMKILKEKNIRFVVGGMYEFGLSRYFTAMLAKEGSYPGDITPHGYYFSNDIVETSGILKGGMIYFTPPKVKRSLLNKV | soluble
SLLKLAIPKGRLEEKVMTYLKKTGVIFERESSILREGKDIVCFMVRPFDVPTYLVHGVADIGFCGTDVLLEKETSLIQPFFIPTNISRMVLAGPKGRGIPEGEKRIATKFPNVTQRYCESKGWHCRIIPLKGSVELAPIAGLSDLIVDITETGRTLKENNLEILDEIFVIRTHVVVNPVSYRTKREEVVSFLEKLQEVIEHDSNEQSRGEGGSHHHHHH | soluble
SLLLLQSILITKIMVIQLILFFEYALASGFEDKNILKEGKMMFDTLLKQFLEIDKVISLLYKDFVDNYIDFKNLEIVKIKKENEIENKLKSLLKSENIDYALVVAPEDEDILYNLTKIIESYPVKNLGCSSEAIKIAGNKYLTYLAIKDAVKTPKTFPPKKYVVKKIDSCGGKFNLFDENFLIQEFIDGENLSVSLIVGKKIHPLSLNRQYIDKRGFVGGEVNINHKLKDKIFNEAIKAVKCINGLNGYVGVDVIVNNDGIYIIEINPRITTTIYGLKTNPSLAELLIKNANNEELKFKVKGEKFTIDK | not soluble
SLMAGLPNSSNALQQWHHLFEAEGTKRSPQAQQHLQQLLRTGLPTRKHENWKYTPLEGLINSQFVSIAGEISPQQRDALALTLDSVRLVFVDGRYVPALSDATEGSGYEVSINDDRQGLPDAIQAEVFLHLTESLAQSVTHIAVKRGQRPAKPLLLMHITQGVAGEEVNTAHYRHHLDLAEGAEATVIEHFVSLNDARHFTGARFTINVAANAHLQHIKLAFENPLSHHFAHNDLLLAEDATAFSHSFLLGGAVLRHNTSTQLNGENSTLRINSLAMPVKNEVCDTRTWLEHNKGFCNSRQLHKTIVSDKGRAVFNGLINVAQHAIKTDGQMTNNNLLMGKLAEVDTKPQLEIYADDVKCSHGATVGRIDDEQIFYLRSRGINQQDAQQMIIYAFAAELTEALRDEGLKQQVLARIGQRLPGGAREGGSHHHHHH | soluble
SLNTGEPAPVLSSPPPADVSTFLAFPSPEKLLRLGPKSSVLIAQQTDTSDPEKVVSAFLKVSSVFKDEATVRMAVQDAVDALMQKAFNSSSFNSNTFLTRLLVHMGLLKSEDKVKAIANLYGPLMALNHMVQQDYFPKALAPLLLAFVTKPNSALESSSFARHSLLQTLYKV | soluble
SLPAPTQLFFPLIRNCELSRIYGTACYCHHKHLCCSSSYIPQSRLRYTPHPAYATFCRPKENWWQYTQGRRYASTPQKFYLTPPQVNSILKANEYSFKVPEFDGKNVSSILGFDSNQLPANAPIEDRRSAATCLQTRGMLLGVFDGHAGCACSQAVSERLFYYIAVSLLPHETLLEIENAVESGRALLPILQWHKHPNDYFSKEASKLYFNSLRTYWQELIDLNTGESTDIDVKEALINAFKRLDNDISLEAQVGDPNSFLNYLVLRVAFSGATACVAHVDGVDLHVANTGDSRAMLGVQEEDGSWSAVTLSNDHNAQNERELERLKLEHPKSEAKSVVKQDRLLGLLMPFRAFGDVKFKWSIDLQKRVIESGPDQLNDNEYTKFIPPNYHTPPYLTAEPEVTYHRLRPQDKFLVLATDGLWETMHRQDVVRIVGEYLTGMHHQQPIAVGGYKVTLGQMHGLLTERRTKMSSVFEDQNAATHLIRHAVGNNEFGTVDHERLSKMLSLPEELARMYRDDITIIVVQFNSHVVGAYQNQE | not soluble
SLPTLVTTQASDIDGSTLLSSQKGSGLGDCDSDARWTWDGRRFVPTSTSTSGLCRLVAAGGAWELPTLVTEVKSSP | soluble
SLQPYEKYLKLNSQKLRADQTDTERKLWQRINRDQLLGFRFNRQKPLLSYIVDFYCAKTKLIIELDGSQHYKPDYQEKDALRDAELNSLGFTVMRFSNDEVMREIEAVVEQIYLFLENVRTD | not soluble
SLRITLEFTGEKNLILPIHYNYIVQGLLYDLMGDTDFAAFLHDVGFQYEKRRFKLFTFSRIEGEFQIVEKPNGQKKIIIKPPFKFTVASPLEEVIIDISKNILKREYCHFNGQKFTLNSLNIENPPIFKEKARIKFISPVVMYTTLRNGEKKYTYYYSPWDEKFSPLLLNNLVKKYELVYKIKPKNPHFKLIPLTEKEDRRYSKVIKYKNVYVKGWMGIYDVETTPELLELAYYTGLGAKNSQGFGCFEIIG | not soluble
SLSARSSHLSQPVVKSVLVYRNGDPFYAGRRVVIHEKKVSSFEVFLKEVTGGVQAPFGAVRNIYTPRTGHRIRKLDQIQSGGNYVAGGQEAFKKLNYLDIGEIKKRPMEVVNT | soluble
SLSGGKYVDSEGHLYTVPIREQGNIYKPNNKAMADELSEKQVYDAHTKEIDLVNRDPKHLNDDVVKIDFEDVIAEPEGTHSFDGIWKASFTTFTVTKYWFYREG | not soluble
SLSKLMLRHKAKKIDHVAIAVLDLEQAIGYFSMMGFTLSDRMTTTGAHSAMHSAVMEAGPIKFVLLEGANETSQITRFINEYGPGPQHIAIEVENVESLCKELEKQGLDFSTKTIKGPELIQRFTVRCPNSGVMIEFIERNEEEGFSEQNVEDLFRQLEASDAYEG | soluble
SLSTKNHFIFPTYVQMYPYSKDRPFLKQVREKLRYYGYKWLYQKQCSQLVDFLNTETQWQSLFTQDYYRTNTILTTFCDKRFSASERLTAITENLRLAEEKMGRSLCQQLLDQQHIVLTQLTEDLRLSLSINHIDPFEGYFSINIRNQNNERVYDSSFTFLSPNKLLIASIQGPSSDNAQELVKQATKALHGMRPMFMLVNGFKMLAEKWQCELVGIPHKAQGKYRLSARSKILFNYDEFWQENQGEYRHNYWQLPLHIERKQLEDIASKKRSMYRKRYEMLDQMALDIQQL | not soluble
